Test [1] concerns the target T1, Recombinant nucleolin protein (murine, residues 309–644) (mouse, UniProt P09405 309-644). Put plainly: plate binding assay read by fluorescence of PE-labelled streptavidin.
For test [2], the target named is T1, Recombinant nucleolin protein (murine, …). Put plainly: plate competition assay read by fluorescence of PE-labelled streptavidin.
In test [3] the target is T2, Recombinant mouse NRP-1 protein (mouse, UniProt P97333 22-856).
T2 sequence (looked up): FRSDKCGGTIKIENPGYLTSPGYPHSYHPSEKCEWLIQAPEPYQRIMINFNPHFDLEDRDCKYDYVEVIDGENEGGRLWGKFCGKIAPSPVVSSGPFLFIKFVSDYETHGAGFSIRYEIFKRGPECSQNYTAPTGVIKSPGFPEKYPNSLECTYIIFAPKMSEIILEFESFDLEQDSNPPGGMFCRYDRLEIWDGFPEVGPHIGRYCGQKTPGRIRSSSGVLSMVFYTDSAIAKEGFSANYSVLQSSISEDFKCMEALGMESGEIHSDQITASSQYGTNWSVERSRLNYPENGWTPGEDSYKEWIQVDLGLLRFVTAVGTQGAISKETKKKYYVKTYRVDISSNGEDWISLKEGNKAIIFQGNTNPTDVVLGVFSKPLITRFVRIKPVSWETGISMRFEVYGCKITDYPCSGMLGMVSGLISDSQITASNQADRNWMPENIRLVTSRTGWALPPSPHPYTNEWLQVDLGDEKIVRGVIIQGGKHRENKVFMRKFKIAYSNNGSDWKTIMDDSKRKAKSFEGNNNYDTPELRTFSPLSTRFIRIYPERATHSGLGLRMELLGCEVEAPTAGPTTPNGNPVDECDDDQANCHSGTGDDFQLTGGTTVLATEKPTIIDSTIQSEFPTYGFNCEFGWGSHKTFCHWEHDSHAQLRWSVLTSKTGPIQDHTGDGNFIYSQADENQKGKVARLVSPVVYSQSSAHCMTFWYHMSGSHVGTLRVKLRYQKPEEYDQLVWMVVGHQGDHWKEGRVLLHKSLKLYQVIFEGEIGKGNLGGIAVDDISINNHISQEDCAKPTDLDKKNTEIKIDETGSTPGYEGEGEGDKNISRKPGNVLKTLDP
Put plainly: plate binding assay read by fluorescence of PE-labelled streptavidin.

No end group written: not given here. *: point of attachment. Biotin = O=C1N[C@H]2[C@H](CS[C@H]2CCCCC(=O)*)N1

The source of these data is paper PMC9593262 (iScience, 2022).

T1 sequence (P09405 309-644): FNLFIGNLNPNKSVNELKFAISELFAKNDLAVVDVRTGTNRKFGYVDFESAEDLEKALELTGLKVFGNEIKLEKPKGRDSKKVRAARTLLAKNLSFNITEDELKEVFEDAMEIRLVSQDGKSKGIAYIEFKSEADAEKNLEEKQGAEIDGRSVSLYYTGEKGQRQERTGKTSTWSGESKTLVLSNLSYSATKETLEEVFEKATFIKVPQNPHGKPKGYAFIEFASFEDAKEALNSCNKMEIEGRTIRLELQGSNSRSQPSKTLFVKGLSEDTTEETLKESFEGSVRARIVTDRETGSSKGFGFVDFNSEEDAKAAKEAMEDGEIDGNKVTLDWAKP

Biotin-VSYKAIRVSYKAIRVSYKAIR [biotin-labeled Dp1×3]: the binding result in test [1] is given as “binds”.

For the molecule VSYKAIRVSYKAIRVSYKAIR [Dp1×3 (unlabelled)], the binding result in test [2] is recorded as “binds”.

Biotin-VSYKAIR [biotin-labeled DC-targeting peptide Dp1]: in test [3], the binding result is on record as “binds”.
